Reference: PMC11480844 (2024)

B1: H2-Kb / Ed45 (parent complex)
chain 1: GEQVEQRPPHLSVREGDSAVIICTYTDPNSYYFFWYKQEPGAGLQLLMKVFSSTEINEGQGFTVLLNKKDKQLSLNLTAAHPGDSAVYFCAVSGTNAYKVIFGKGTHLHVLP
chain 2: EAAVTQSPRSKVAVTGGKVTLSCHQTNNHDYMYWYRQDTGHGLRLIHYSYVADSTEKGDIPDGYKASRPSQENFSLILELASLSQTAVYFCASARGFQDTQYFGPGTRLLVL
chain 3: not shown
chain 4: IQKTPQIQVYSRHPPENGKPNILNCYVTQFHPPHIEIQMLKNGKKIPKVEMSDMSFSKDWSFYILAHTEFTPTETDTYACRVKHDSMAEPKTVYWDRDM
chain 5: SIINFEKL
B2: H2-Kb / Ed5 (parent complex)
chain 1: GDSVTQTEGPVTVSESESLIINCTYSATSIAYPNLFWYVRYPGEGLQLLLKVITAGQKGSSRGFEATYNKETTSFHLQKASVQESDSAVYYCALGSYNQGKLIFGQGTKLSIKP
chain 2: DTTVKQNPRYKLARVGKPVNLICSQTMNHDTMYWYQKKPNQAPKLLLFYYDKILNREADTFEKFQSSRPNNSFCSLYIGSAGLEYSAMYLCASSRRLGASQNTLYFGAGTRLSVL
chain 3: not shown
chain 4: B1 chain 4
chain 5: SIINFEKL

Variants of: B1
Assay: % of reporter cells activated (NFAT-GFP), raw
Further: test concentration or dose not given here.

Variant	ratio to parent
chain 5 E6T	0.91
chain 5 K7S	1.34
chain 5 L8Q	1.79
chain 5 N4I	1.11
chain 5 F5L	0.719
chain 5 S1L	0.0583

Variants of: B2
Assay: % of reporter cells activated (NFAT-GFP), raw

Variant	ratio to parent
chain 5 L8K	0.793
chain 5 S1E	0.981
chain 5 S1D	0.629
chain 5 L8M	0.752
chain 5 K7A	0.645
chain 5 F5Y	0.892
chain 5 S1C	0.161
chain 5 N4D	0.756
chain 5 S1P	0.0946
chain 5 N4I	0.274
chain 5 S1T	0.944
chain 5 N4T	0.04
chain 5 I3H	0.121
chain 5 E6C	0.491
chain 5 K7E	0.632
chain 5 F5M	0.938
chain 5 K7M	0.725
chain 5 I2W	0.66
chain 5 L8Q	0.783
chain 5 F5K	0.905
chain 5 L8S	0.641
chain 5 L8R	0.904
chain 5 E6K	0.901

Variant	ratio to parent
chain 5 L8W	0.585
chain 5 I3A	0.32
chain 5 F5V	0.777
chain 5 K7N	0.714
chain 5 N4G	0.00398
chain 5 E6S	0.585
chain 5 E6P	0.186
chain 5 N4P	0.00308
chain 5 N4E	0.00233
chain 5 N4R	0.374
chain 5 F5A	1.01
chain 5 K7H	0.798
chain 5 I2R	0.641
chain 5 S1L	0.0134
chain 5 N4Y	0.0536
chain 5 K7D	0.593
chain 5 N4L	0.182
chain 5 S1W	0.374
chain 5 I2H	0.763
chain 5 F5E	0.848
chain 5 S1M	0.02
chain 5 N4S	0.0018
chain 5 F5I	0.886

Variant	ratio to parent
chain 5 K7F	0.657
chain 5 E6Q	0.619
chain 5 E6I	0.533
chain 5 I2T	1
chain 5 N4K	0.0781
chain 5 E6A	0.606
chain 5 F5R	0.764
chain 5 N4A	0.002
chain 5 I2V	1.01
chain 5 N4C	0.164
chain 5 L8H	0.958
chain 5 F5H	0.822
chain 5 K7Y	0.717
chain 5 L8G	0.901
chain 5 I2D	0.943
chain 5 E6V	0.618
chain 5 F5S	0.735
chain 5 S1R	0.293
chain 5 I2F	0.851
chain 5 S1Q	0.556
chain 5 F5W	0.695
chain 5 L8E	0.629
chain 5 I3G	0.28
